Source: article PMC6168074 (Cell reports, 2017)
Blank lines part the entries; values can stand above or below the molecule they belong to.

Experiments:
Damb (DAMB) = target: T1, Damb (DAMB) (Drosophila melanogaster, UniProt Q24563); test: real-time BRET G protein activation assay, HEK293T/[…] cells; format: cell-based
T1 sequence (Q24563 1-539): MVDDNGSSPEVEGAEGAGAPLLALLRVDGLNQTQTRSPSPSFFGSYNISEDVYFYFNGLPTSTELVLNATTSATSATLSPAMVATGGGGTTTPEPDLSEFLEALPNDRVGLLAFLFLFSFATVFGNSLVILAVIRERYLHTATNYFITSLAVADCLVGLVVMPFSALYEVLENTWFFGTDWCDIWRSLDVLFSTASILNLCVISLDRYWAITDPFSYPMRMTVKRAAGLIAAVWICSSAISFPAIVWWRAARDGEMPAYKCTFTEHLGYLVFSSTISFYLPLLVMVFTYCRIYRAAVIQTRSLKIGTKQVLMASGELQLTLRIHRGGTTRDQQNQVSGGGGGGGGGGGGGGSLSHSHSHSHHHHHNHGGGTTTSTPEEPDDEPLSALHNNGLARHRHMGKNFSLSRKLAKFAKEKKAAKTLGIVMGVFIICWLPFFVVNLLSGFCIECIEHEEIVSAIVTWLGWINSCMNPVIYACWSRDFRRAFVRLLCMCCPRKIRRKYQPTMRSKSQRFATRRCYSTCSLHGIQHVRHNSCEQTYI

[1] = target: Drosophila Gαq isoform G (Drosophila)
[2] = target: Drosophila Gαs isoform A (Drosophila)

- EC50 (Damb (DAMB)): 56.7 ± 7.7 nM
Molecule: NCCc1ccc(O)c(O)c1 [dopamine]

- rate of G protein activation (BRET, 100 μM DA, HEK293T/17 cells) [1]: 2.71 s⁻¹
- rate of G protein activation (BRET, 100 μM DA, HEK293T/17 cells) [2]: 0.46 s⁻¹
B1: Damb (DopAmine receptor expressed in Mushroom Bodies) (receptor)
chain: T1 sequence (Q24563 1-539)
